From US7294472B2, “Method for identifying modulators of G protein coupled receptor signaling” (Caden Biosciences, priority 2001, dated 2007)

Assays:
[1] = target: T1, PAR1 (Homo sapiens, UniProt P25116); test: Binding of MBP-Gαq to purified, reconstituted activated PAR1 (ELISA); design: made in house; host or cells: Sf9 insect cells infected with ThR/pBluebac recombinant virus, purified on an anti-PAR1 monoclonal antibody column; conditions: purified reconstituted PAR1 with thrombin receptor activating peptide
T1 sequence (P25116 22-425): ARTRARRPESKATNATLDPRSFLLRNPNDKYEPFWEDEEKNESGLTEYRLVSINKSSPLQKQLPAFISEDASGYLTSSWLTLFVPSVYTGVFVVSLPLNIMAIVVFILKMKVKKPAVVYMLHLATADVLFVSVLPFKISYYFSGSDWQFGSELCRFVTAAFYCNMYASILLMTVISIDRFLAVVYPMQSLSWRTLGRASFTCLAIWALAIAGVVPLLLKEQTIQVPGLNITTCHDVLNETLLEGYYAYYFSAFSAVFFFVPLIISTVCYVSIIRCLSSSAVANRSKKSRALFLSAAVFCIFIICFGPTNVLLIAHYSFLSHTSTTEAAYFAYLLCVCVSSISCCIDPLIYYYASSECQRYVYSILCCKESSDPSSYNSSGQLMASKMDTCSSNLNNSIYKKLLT
Procedure: Microtiter wells were coated with purified, reconstituted PAR1 in the presence of […] thrombin receptor activating peptide, as described above in Example 6. Purified maltose binding protein-Gαq (MBP-Gαq) was added at the concentrations indicated in FIG. 11 and incubated one hour on a shaker at 4° C. The wells were rinsed and then probed with a rabbit anti-maltose binding protein antibody, followed by alkaline phosphatase conjugated secondary antibodies, as described above. Substrate was added and the color was allowed to develop about 20 minutes. Absorbance at 405 nm was measured and dose-response curves were calculated using GraphPad Prism (version 2.0). See results in FIG. 11.

[2] = target: T2, light-activated rhodopsin (Bos taurus, UniProt P02699); test: Competition of heterotrimeric Gt with MBP high affinity peptide fusion proteins for rhodopsin; type: binding, bovine; conditions: 1 μM heterotrimeric Gt
T2 construct: Bovine rod outer segments (rhodopsin-containing membranes) were prepared from fresh retinas; from tissue; host or cells: bovine retina, rod outer segment membranes (EDTA- and urea-washed)
Procedure: When light-activated rhodopsin was screened for peptides based on the C-terminus of Gt, a large number of high-affinity sequences were obtained. Binding of MBP fusion proteins containing the high affinity peptide from the library (sequences from clones 8, 9, 10, 18, 23, 24, as well as pELM17 which encodes the wild-type peptide sequence, and pELM6 which contains no peptide; MBP-8, MBP-9, MBP-10, MBP-18, MBP-23, MBP-24, MBP-pELM17) were assessed for their ability to bind rhodopsin (0.5 μg rhodopsin/well) in the presence or absence of heterotrimeric Gt.
Lysate (50 μl) from each clone was added and incubated in the light. After 45 minutes, 1 μM heterotrimeric Gt was added and the solution incubated for 30 minutes. Anti-MBP antibody was added, followed by goat anti-rabbit alkaline phosphatase conjugated antibody and substrate. The color was allowed to develop.

[3] = target: T3, rhodopsin (Bos taurus, UniProt P02699); test: "extra MII" assay: stabilization of metarhodopsin II; type: biochemical, bovine
T3 construct: Bovine rod outer segments (rhodopsin-containing membranes) were prepared from fresh retinas; from tissue; host or cells: bovine retina, rod outer segment membranes (EDTA- and urea-washed)
Source text: Rhodopsin can be measured spectrophotometrically in many of its conformational states. The high affinity, biologically active rhodopsin state can be easily differentiated from its precursor, MI, by the “extra” MII assay. See Example 35. This assay relies on the observation that under conditions of high pH and low temperature, MII is stabilized in the presence of Gt and can be spectrophotometrically measured. The ability of the C-terminal peptide to stabilize Meta II in the same manner as the heterotrimeric Gt, provides the tools to investigate the structural basis of the interaction of G proteins with the agonist binding sites of activated receptors.
For the “extra MII” assay, EDTA-washed rhodopsin (Example 5; 5 μM) is incubated in a 50 mM HEPES buffer, pH 8.2, with 100 mM NaCl, 1 mM MgCl2, and 1 mM DTT at 5.3° C., in the absence or presence of varying concentrations of Gt340-350 analogs or Gt. The sample is maintained at 5.4° C. using a water-jacketed and thermostated circulator cuvette holder in an SLM Aminco DW2000 spectrophotometer at 390 and 440 nm. A flash of light bleaching 10% of the rhodopsin is presented and after a 1 min incubation, a second spectrum is measured and the difference in spectrum calculated. “Extra” MII is calculated as the difference between the absorbance at 390 and 440. Dose response curves of MII stabilization by αt340350 (λ), mutant α340-350K341L(ν), and heterotrimeric Gt (v) were analyzed by non-linear regression using the program GraphPad PRISM and are shown in FIG. 23.
EDTA-washed rhodopsin (5 μM) was incubated in a 50 mM HEPES buffer, pH 8.2, with 100 mM NaCl, 1 mM MgCl2, and 1 mM DTT at 5.3° C., and “extra” MII was measured. For compounds that enhanced MBP-8 binding over 25% using the color coded readout, dose studies were performed to generate EC50 curves. Table XXII below provides the calculated EC50 for metarhodopsin II stabilization of each compound.

T3 sequence (P02699 whole entry): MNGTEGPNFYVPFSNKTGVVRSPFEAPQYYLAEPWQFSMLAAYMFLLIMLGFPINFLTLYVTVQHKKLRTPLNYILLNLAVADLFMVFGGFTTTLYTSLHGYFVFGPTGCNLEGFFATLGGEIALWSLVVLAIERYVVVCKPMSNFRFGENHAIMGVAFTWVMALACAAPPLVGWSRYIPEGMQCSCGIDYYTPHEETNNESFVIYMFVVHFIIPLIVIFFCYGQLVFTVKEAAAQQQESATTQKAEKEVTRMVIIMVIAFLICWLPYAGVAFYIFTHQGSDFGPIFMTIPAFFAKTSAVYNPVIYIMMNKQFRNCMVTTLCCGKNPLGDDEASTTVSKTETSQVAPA
T2 sequence (P02699 whole entry, the tested form may be a part): as the sequence (P02699 whole entry) above

Substance: MBP-Gαq: purified maltose binding protein fused to native Gαq C-terminal peptide
- IC50 [1]: 214 nM

Substance: heterotrimeric Gt: heterotrimeric G protein, transducin (Gt) [reference compound]
- effect on high affinity peptide fusion protein binding to light-activated rhodopsin (in words) [2]: competitively inhibited
- stabilization of MII (in words) [3]: stabilize the active form of rhodopsin
